These results are taken from patent US20120207760A1 (THERACLONE SCIENCES, published 2012).

B1: TCN-545 (5082_I15) (antibody, V domains shown)
VH: QVQLQQWGAGLLKPSETLSLSCAVFGGSFSDYYWTWIRQPPGKGLEWIGEIKHSGRTNYNPSLESRVTISVDTSKNQFSLKLSSVTAADTAIYYCARGTDPDTEGYCRSGSCSAFDFWGQGTLVTVSS
VL: EIVLTQSPGTLSLSPGERATLSCRASHFVNYRSLAWYQQTPGQVPRLLIYGASTRATGIPDRFSGSGSGTDFTLTISRLEPEDFAVYFCQQYGGSPRYTFGQGTRLEIK
B2: TCN-521 (3280_D18) (antibody, V domains shown)
VH: EVQLVQSGGGLVQPGGSLRLACVVSGFTVTSNYITWVRQAPGKGLEWVSVIYSHGRAYYSASVNGRFTISRHTSKNTVYLEMNSLRPEDTAVYYCAGGGLVGGYDEYFFDYWGQGTLATVSS
VL: ETVLTQSPGTLSLTPGERATLSCRVGQSVSGSHLAWYQQKPGQAPRLLIYGASSRATGIPDRFGGSVSGTDFTLTISRLEPEDSAVYYCQQYGDSRYTFGQGTKLEIK
B3: TCN-526 (5084_C17) (antibody, V domains shown)
VH: EVLMVESGGGLVQPGGSVRLSCVASGFSFSSHWMTWVRQAPGKGLEWVANIEDDGGDKYYVDSVKGRFIISRDNAKNSVYLQMNSLRAEDTAVYFCARGSGSSDRSDYDPHYYYYLDVWGKGATVTVSS
VL: DIQLTQSPSSLSASVGDRVTITCRASQSISRYLNWYQQKPGKAPKLLLFAASTLLDGVPSRFSGSGSGTDFTLTISSLQPEDFATYYCQRNHSPSWTFGQGTRVEIK
B4: TCN-543 (5081_G23) (antibody, V domains shown)
VH: QVHLVQSGAEVRKPGDSVKVSCKTSGYTFSTYPVAWVRQVPGQGLEWMGWISTYNGNTNFAQNFQGRVTLTTDTTTNTAYMEVRSLKFDDTAVYYCARVEGSYRDFWNNQNRFDPWGQGTLVTVSS
VL: SYVLTQPPSVSVAPGQTARISCGGSNIGGKSVHWYQQKPGQAPVLVVYDDSGRPSGIPERFSGSNSGDTATLTISRVEAGDEADYFCQVWDNFGGVFGTGTKVTVL
B5: TCN-528 (5087_P17) (antibody, V domains shown)
VH: QVQLVQSGSEVKKPGASVKVSCKASGYTFTNYDINWIRQAPGQGLEWMGWINPNSGTTGSAQRFQGRVTITVDTSITTVYMELSSLRSDDTAIYYCARGRELLRLQHFLTDSQSERRDCFDPWGQGTLVTVSS
VL: DIQMTQSPSSLSASVGDRVTITCRANQDIGIYLNWYQQNPGKVPKLLLHGASSLQGGVPSRFSASGSGTDFTLTIHSLQPEDLATYYCQQSRRLPYTFGQGTRVELK
B6: TCN-534 (5249_B02) (antibody, V domains shown)
VH: QVQLVQSGAEVKKPGSSVKVSCRESGGTFNGYTITWVRQAPGQGLEWMGGIIPMMGTVNYAQKLQGRVTITTDYFTKTAYMDLNNLRSEDTAMYYCVKIRYTGQQLLWGQGTLVTVSS
VL: DIQMTQSPSTLSASIGDRVTITCRASQSIASWLAWYQQKPGKAPKLLIYEAVNLESGVPSRFSGSGSGTDFTLTISSLQPDDFATYFCQHYGTISQTFGGGTKVEIK
B7: TCN-544 (5082_A19) (antibody, V domains shown)
VH: QVQLQESGPGLVKPSETLSLTCTVSRGSIGHYFWSWIRQPPGKGLEWIGYISYSGSTKYNPSLRSRVTISVDTSKNQFSLNLNSVTATDTALYYCAREDYDILTGAGPGMEVWGQGTTVTVSS
VL: QSMLTQPPSASGTPGQRVTISCSGSSSNIGSNTVNWFKHLPGTAPKLLIYRNDLRPSGVPDRFSGSKSGTSASLAISGLQSEDEADYYCATWDDSLNGFYVFGTGTKVTVL
B8: TCN-532 (5262_H18) (antibody, V domains shown)
VH: QVQLQESGPGLVKPSETLSLTCTVSGGSVSSETYYWSWIRQPPGKGLEWIGYIYYIGNTDYRPSLKSRVTISLDTSKNQFSLKLSSVTAADTAVYYCARGAYYDSSGYPAFYIWGQGTMVTVSS
VL: QSVLTQPPSVSGAPGQRVTISCTGSSSNIGSDYDVHWYKQLPGTAPKLLIFGNSNRPSGVPDRFSGSKSGTSASLAITGLQAEDEADYYCQSYDSSLSGFHVFGSGTKVTVL
B9: TCN-540 (5060_F05) (antibody, V domains shown)
VH: QVQLVQSGGGVVQPGRSLRLSCAASGFTFSSYAMHWVRQAPGKGLEWVAIISYDGNDQYYTDSVKGRFTISRDSSKVYLQMHRLRPEDTAVYYCAKEFETSGYFHGSFDYWGQGILVTVSS
VL: QSALTQPASVSGSPGQSITISCTGTSSDVGGYNYVSWYQQHPGKAPKLLIYEVTNWPSGVSNRFSGSKSGNTASLTISGLQAEDEADYYCSSYAGSSTWVFGGGTRVTVL
B10: TCN-530 (5248_H10a) (antibody, V domains shown)
VH: QVQLVQSGAEVRKPGSSVKVSCKASGGPFMSYAIGWVRQAPGQGLEWMGGINPVFGRPHYAQKFQGRVTIATDDSTKTSYMELSSLTSEDTGMYYCASRYSRSSPGTFESWGQGTLVTVSS
VL: EIVMTQFPATLSVSPGERVTLSCRASQSVSNNLAWYQQKPGQPPRLLIYDASTRATGVPAKFSGTGSGTEFTLSISSLQSEDFAVYYCQQYHNWPPSYSFGLGTKLEIK
B11: TCN-533 (5256_A17) (antibody, V domains shown)
VH: QVQLVQSGADVKKPGSSVTVSCKASGGSFSNYGINWVRQAPGQGLEWMGGIIPLINAPNYAPKFQGRVTITADMFSNIVSLQLTSLRTDDTAVYYCARRKMTTAIDYWGQGTLVTVSS
VL: QPVLSQPPSASASLGASVTLTCTLSSGFDNYQVAWYQQRPGKGPRFVMRVGNGGNVASKGDGIPDRFSVSGSGLNRYLTIKNIQEDDESDYYCGADHGSGNNFVSPYVFGGGTKLTVL
B12: TCN-547 (5092_F11) (antibody, V domains shown)
VH: QVQLQESGPGLVKPSQTLSLTCTVSGDSISSVDHYWSWIRQHPVKGLEWIGFMYYSASTYYNPSLKSRVTISTDTSKNQFSLRLSSVTAADTAVYYCARGTCAGDCSLHYYYYGLDVWGQGRTVTVSS
VL: DIQMTQSPSSLSASVGDRVTITCRASQSISSYLNWYQHKPGKAPKVLMYAVSILQSGVPSRFSGSGSGADFTLTISSLQPEDFATYYCQQSYSSPLTFGGGTKVEIK
B13: TCN-539 (5056_A08) (antibody, V domains shown)
VH: QVQLVESGGGVVQPGRSLRLSCAASEITFITYAMHWVRQAPGKGLEWVALISDDGSNKFYADSVKGRFTISRDNSKNTLYLQMNSLRAEDTAAYYCAREGVYFDSGTYRGYFDYWGQETLVTVSS
VL: EIVLTQSPATLSLSPGERATLSCRASQSVSSYLAWYQQKPGQAPRLLIYDASNRATGIPARFSGSGSGTDFTLTISSLEPEDFAVYYCQQRSHWPPITFGQGTRLEIK
B14: TCN-563 (5237_B21) (antibody, V domains shown)
VH: QVQLAQSGAEVKRPGSSVKVSCTASGGIFRKNAISWVRQAPGQGLEWMGGIIAVFNTANYAQKFQGRVKITADESGNTAYMELSSLRSDDTAVYYCASHPKYFYGSGSYPDFWGQGTLVTVSS
VL: QSALTQPRSVSGSPGQSVTISCTGSSSDVGASNSVSWYQQHPGKAPKLVIYDVTERPSGVPHRFSGSKSGNTASLTVSGLQPEDEADYFCCAYGGKYLVVFGGGTKVTVL
B15: TCN-535 (5246_P19) (antibody, V domains shown)
VH: QVQLVQSGSEVKKPGTSVKVSCTASGSVFTNYGISWVRQAPGQGLEWMGGIIPLFGAAKYAQKFQGRVTITADESTKTVYMELSRLTSKDTAIYFCAKAPRVYEYYFDQWGQGTPVTVSS
VL: EIVLTQSPGTLSLSPGERATLSCRASQSVSSSQLAWYQQKPGQAPRLIIYGASTRATGIPDRFSGSGSGTDFTLTIGRLEPEDFAVFFCQQYSTSPPTFGQGTKVDFK
B16: TCN-531 (5091_H13) (antibody, V domains shown)
VH: EVQLVESGGDLVQPGRSLKLSCTGSGFTFGDYGVTWVRQAPGKGLEWVGFIRTRPWGGTADTAASVKGRFTISRDDSKSLAYLQMNSLKTEDTAVYYCCRDAPPNVEVASMTNWYFDLWGRGTLVTVSS
VL: DIQLTQSPSSLSASVGDRVTITCRASQGILNCLAWYQQKPGKVPNLLMYAASTLQSGVPSRFSGSGFGTDFTLTISSLQPEDVATYYCQTYGGVSTFGGGTKVEIR
B17: TCN-542 (5079_A16) (antibody, V domains shown)
VH: QVQLQESGPGLVKPSQTLSLTCTVSGGSISSGNYYWNWVRQHPGKGLEWIGYIYYRGSTFYNPSLKSRVTISIDTSKNQFSLRLSSVTAADTAVYYCAKDTRSSLDNYQYGMDVWGQGTTVTVSS
VL: QTVVTQEPSLTVSPGGTVTLTCASSTGAVTSSYFPNWFQQKPGQAPRPLIYSTTIRHSWTPARFSGSLLGGKAALTLSGVQPEDEADYYCLLYSGGDPVAFGGGTKLTVL
B18: TCN-546 (5089_L08) (antibody, V domains shown)
VH: QVQLQQWGAGLLKPSETLSLTCGVYGGSLSDYYWSWIRQPPGKGLEWIGEINHSGGTNYNPSLKRRVTISVDTSKKQFSLKMNSVTAADTAVYYCARGTDPDTEVYCRAGNCAAFDFWGQGTLVTVSS
VL: EIVLTQSPGTLSLSPGERATLSCRASHFVIGRAVAWYQQKPGQAPRLLIYGASSRATGIPDRFSGSGSGTDFTLTISRLETEDFAVFYCQHYGSSPRYAFGQGTKLEIK
B19: TCN-527 (5086_C06) (antibody, V domains shown)
VH: QVQLQESGPGLVKPSETLSLNCAVSGGSISNYYWSWIRQPPGKGLEWIGYISYNGRPKYNPSLTSRVTISVDTSKDQFSLELRSVTAADTALYYCARETRFGELLSPYDAFEIWGQGTMVTVSS
VL: DIQMTQSPSSLSASVGDRVTMTCRASQNIRSYLNWYQQRPGTAPKLLIYAASTLHSGVPSRFSGGGSGTDFTLTINNLQPEDFASYYCQQSYDNPQTFGQGTKVEIK
B20: TCN-536 (5095_N01) (antibody, V domains shown)
VH: QVQLQQWGAGLLKPSETLSLTCAVYGGSFSVSGYYWSWIRQPPGRGLEWIGEISHGGSTNYNPSLKSRVTISVDTTKNQFSLRLSSVTAADTAVYYCARGTDPDTEVYCRVGNCAAFDYWGQGSLVTVSS
VL: EIILAQSPGTLSLSPGERATLSCRASQFVSTRSLAWYQQRPGQAPRLLIYGASSRATGIPDRFSGSGSGTDFTLTISRLEPEDFAVYYCQHYGYSPRYAFGQGSKVEIK
B21: TCN-523 (5248_A17) (antibody, V domains shown)
VH: QVQLVQSGAEVKKPGSSVKVSCKASGGSFSNYAFSWVRQAPGQGLEWMGGTIPLLGTTNYAQKFQGRVTISADQFTSTAYMELGSLRSEDTAVYYCTRRKMTTAFDSWGQGTLVTVSS
VL: QPVLTQPPSASASLGASVTLTCTLSSAYSNYKVDWYQQRPGKGPRFVMRVGTGGIVGSKGDGIPDRFSVLGSGLNRYLTIKNIQEEDESDYHCGADHGSGSNFVSPYVFGGGTKLTVL

In this experiment the target is Hemagglutinin of influenza A/Solomon Islands/3/06 (H1N1), on inactivated whole virions (Influenza A virus A/Solomon …). As to the kind of experiment: ELISA, B cell culture supernatant on inactivated whole virions. Background: An ELISA detects its analyte on a solid surface through an enzyme-linked reagent.
In the case of B1, the OD450 came to 3.32 OD450. Under B2 stands 3.7 OD450; under B3, 0.06 OD450. As for B4, the figure is 3.63 OD450; as for B5, 3.62 OD450; as for B6, 3.55 OD450. Turning to B7, the OD450 worked out at 0.32 OD450. Under B8 stands 0.06 OD450; under B9, 0.07 OD450; under B10, 3.52 OD450. As for B11, the figure is 3.54 OD450; as for B12, 0.06 OD450. Under B13 stands 0.06 OD450; under B14, 3.62 OD450.

For the molecule B15, the OD450 was 3.43 OD450. For B16, the OD450 stood at 3.23 OD450. As for B17, the figure is 3.66 OD450; as for B18, 1.95 OD450. B19 returned an OD450 of 3.03 OD450. As for B20, the figure is 3.63 OD450; as for B21, 3.47 OD450.
